From patent US12221483 (CHINA MEDICAL UNIVERSITY HOSPITAL, dated 2025)

Biological target: T1, recombinant CD3E protein (UniProt P07766 23-126, limits assumed)
T1 construct: also called CD3ε; CD3 epsilon
Experiment: SPR (BIAcore T200); fusion protein on exosomes (1x10^11) coated on CM5 chip, recombinant CD3E protein as analyte at 700-21.9 nM; fusion protein (1×10^11) coated on CM5 chip; recombinant CD3E as analyte

T1 sequence (P07766 23-126 limits assumed): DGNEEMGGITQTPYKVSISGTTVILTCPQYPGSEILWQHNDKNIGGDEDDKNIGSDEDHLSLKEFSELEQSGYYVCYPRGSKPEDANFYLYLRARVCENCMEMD

Kd: 2.1 nM
B1: fusion protein comprising anti-CD3 single domain antibody and exosomal protein CD63 (other)
chain: MAVEGGMKCVKFLLYVLLLAFCACAVGLIAVGVGAQLVLSQTIIQGATPGSLLPVVIIAVGVFLFLVAFVGCCGACKENYCLMITFAIFLSLIMLVEVAAAIAGYVFRDKVMSEFNNNFRQQMENYPKNNHTASAHVQLVESGGGSVQAGGSLRLSCTVSGVIFKNEYMGWFRQAPGKEREGVAAASPGGTITYYGDSVKGRFTISRDNAKNTVYLQMNRLKPEDTAMYYCALDPSTTSWSIIRHGPSLWRYSGRGTQVTVSSGSSILDRMQADFKCCGAANYTDWEKIPSMSKNRVPDSCCINVTVGCGINFNEKAIHKEGCVEKIGGWLRKNVLVVAAAALGIAFVEVLGIVFACCLVKSIRSGYEVM
notes: in the SPR assay the exosomes carrying the fusion protein (1x10^11) were coated on a CM5 chip; also called anti-CD3 single domain antibody-CD63 chimeric protein; CD3ε Nb-Exo
